Data on four molecules can be found in US12319742 (SHATTUCK LABS, dated 2025).

As a reminder, the Kd is the free concentration of one partner at which half of the binding sites on the other are occupied at equilibrium, for simple one-to-one binding. The koff is a measure of how fast the partners let go of each other. As usually defined, the kon is the rate constant with which the complex forms. In general, IC50 refers to the concentration at which inhibition is half-maximal.

The target of assay [1] is T1, biotinylated recombinant human FcRn-His tagged protein (Acro #FCM-H82W7) (human, UniProt P55899 24-297; P61769 21-119, biotinylated).
T1 construct: also called hFcRn; neonatal Fc receptor
Description: BLI/Octet; biotinylated human FcRn-His on streptavidin biosensor. As for the experimental part:
(§1) Figure 5D: FIG. 5D. FcRn binding kinetics by anti-TNFRSF25 antibodies. BLI assay was performed using the Octet Red 96e instrument. Streptavidin biosensors were loaded with biotinylated recombinant human(h) FcRn-His tagged protein (Acro #FCM-H82W7) as the ligand. During the association phase, biosensors were incubated with anti-DR3 candidate antibodies at various concentrations for 600 seconds, followed by a 600-second dissociation phase.
(§2) To detect binding of certain whole antibodies to the neonatal Fc receptor (FcRn) at neutral and acidic pH conditions, streptavidin biosensors were loaded with biotinylated recombinant human FcRn-His tagged protein (Acro #FCM-H82W7) as the ligand. During the association phase, biosensors were incubated with anti-TNFRSF25 antibodies at various concentrations for 600 seconds, followed by a 600 second dissociation phase.
A general note: BLI is a label-free optical method that tracks binding on a fibre tip over time.

The target of assay [2] is T1, biotinylated recombinant human FcRn-His …. As to the kind of experiment: BLI/Octet; biotinylated human FcRn-His on streptavidin biosensor; pH 6.0. As to the method:
as §1, §2

Assay [3] has the same target. Description: BLI/Octet; biotinylated human FcRn-His on streptavidin biosensor; pH 7.4. As to the method: as §1, §2
Assay [4] deals with T2, biotinylated recombinant human TNFRSF25-His tagged (Acro #TN5-H52H3) (human, UniProt Q93038 25-199, biotinylated).
T2 construct: treated as the same protein; also called recombinant biotin-conjugated human TNFRSF25 protein; DR3
T2 sequence (looked up): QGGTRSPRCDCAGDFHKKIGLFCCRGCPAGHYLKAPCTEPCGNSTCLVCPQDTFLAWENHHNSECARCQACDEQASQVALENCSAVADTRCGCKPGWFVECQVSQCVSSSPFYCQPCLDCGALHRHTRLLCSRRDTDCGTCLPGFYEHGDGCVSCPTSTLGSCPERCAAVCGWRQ
As to the kind of experiment: MSD competition (lower panel); antibody on TNFRSF25-coated plate, wash, then TL1A-rabbit Fc at 0.4 ug/ml, sulfo-tag anti-rabbit detection; raw MSD signal. As for the experimental part: (§3) Figure 6: FIG. 6. […] Human TNFRSF25 was precoated on MSD assay plates followed by incubating with various concentrations of anti-TNFRSF25 antibodies.

Assay [5] deals with T2, biotinylated recombinant human …. As to the kind of experiment: BLI/Octet Red 96e; biotinylated TNFRSF25-His on streptavidin biosensor; 600 s association, 600 s dissociation. As for the experimental part: Figure 4: FIG. 4. TNFRSF25 binding affinity of anti-TNFRSF25 antibodies. BLI assay was performed using the Octet Red 96e instrument. Streptavidin biosensors were loaded with biotinylated recombinant human TNFRSF25-His tagged (Acro #TN5-H52H3) as the ligand. During the association phase, biosensors were incubated with anti-TNFRSF25 antibodies at various concentrations for 600 seconds, followed by a 600-second dissociation phase.
To detect binding of certain whole antibodies to human TNFRSF25, streptavidin biosensors were loaded with biotinylated recombinant human TNFRSF25-His tagged (Acro #TN5-H52H3) as the ligand. During the association phase, biosensors were incubated with anti-TNFRSF25 antibodies at various concentrations for 600 seconds, followed by a 600 second dissociation phase.

In assay [6] the target is FcγR1 (CD64), BLI reagent (UniProt P12314 16-288, limits assumed). Description: BLI; antibody as analyte at 300 nM on FcγR1.
The target in assay [7] is T3, TNFR1 (recombinant) (UniProt P19438 30-211, limits assumed).
T3 sequence (looked up): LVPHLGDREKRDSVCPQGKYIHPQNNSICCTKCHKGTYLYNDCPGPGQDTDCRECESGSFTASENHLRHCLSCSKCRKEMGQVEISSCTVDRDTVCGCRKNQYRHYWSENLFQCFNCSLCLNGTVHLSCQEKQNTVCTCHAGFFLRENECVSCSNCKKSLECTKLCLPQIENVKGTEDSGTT
Description: MSD plate binding; human TNFR1 protein immobilized on the plate, sulfo-tag anti-human Fc.

For assay [8], the target named is T4, TNFR2 (recombinant) (UniProt P20333 23-257, limits assumed).
T4 sequence (looked up): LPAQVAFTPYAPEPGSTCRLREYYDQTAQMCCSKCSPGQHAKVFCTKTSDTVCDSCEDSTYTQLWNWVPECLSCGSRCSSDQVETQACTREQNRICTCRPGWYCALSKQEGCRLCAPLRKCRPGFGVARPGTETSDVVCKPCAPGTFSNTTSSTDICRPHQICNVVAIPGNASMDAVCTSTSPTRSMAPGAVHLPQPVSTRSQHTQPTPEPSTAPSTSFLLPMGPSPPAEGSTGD
As to the kind of experiment: MSD plate binding; human TNFR2 protein immobilized on the plate, sulfo-tag anti-human Fc.

Assay [9] concerns the target T2, biotinylated recombinant human …. Description: MSD competition; TNFRSF25 on plate, antibody titrated, then TL1A-rabbit Fc 0.4 µg/ml as competitor. As for the experimental part:
as §3

The target of assay [10] is T5, DcR3 (decoy receptor, recombinant) (UniProt O95407 30-300).
T5 construct: also called decoy Receptor, DcR3
T5 sequence (looked up): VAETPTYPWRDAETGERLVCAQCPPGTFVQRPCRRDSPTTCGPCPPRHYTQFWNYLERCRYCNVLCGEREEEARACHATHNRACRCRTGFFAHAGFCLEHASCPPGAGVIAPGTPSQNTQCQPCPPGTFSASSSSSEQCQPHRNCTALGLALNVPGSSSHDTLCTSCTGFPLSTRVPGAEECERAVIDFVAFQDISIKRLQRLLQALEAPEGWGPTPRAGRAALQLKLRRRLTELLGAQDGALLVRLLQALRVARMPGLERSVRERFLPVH
As to the kind of experiment: MSD plate binding; human DcR3 protein immobilized on the plate, sulfo-tag anti-human Fc.

The target of assay [11] is T2, biotinylated recombinant human …. Description: BLI/Octet; biotinylated TNFRSF25 on streptavidin sensor, mAb in solution; 1:1 Langmuir model. The source says: Provided herein are monoclonal and biparatopic antibodies that specifically target human TNFRSF25. The monoclonal antibodies were produced in an engineered CHOK1 cell-line by transfecting the cells with vectors genetically encoding the Heavy and Light chain antibody sequences followed by a single-step affinity-capture chromatography using FcXL resins. The final monoclonal antibody preparation was buffer exchanged into PBS, pH 7.4. Production of biparatopic antibodies followed a two-step process. In the first step of the process, the so called Knob-half (or Hole-half) antibody was produced by transfecting an engineered CHOK1 cell-line with vectors genetically encoding the Knob (or the Hole) Heavy chain and the corresponding Light chain sequences. The CHOK1-cell-harvest from the Knob-half antibody and Hole half-antibody was then purified by Protein A column-based chromatography. In the second step of the process, the two half-antibodies were reassembled into the desired biparatopic format by the use of a mild reduction step followed by quenching the reaction with buffer exchange into PBS, pH 7.4. To detect binding of the antibodies to human TNFRSF25, recombinant biotin-conjugated human TNFRSF25 protein was immobilized onto a streptavidin-coated MSD (Meso Scale Discovery) plate and allowed to bind the anti-TNFRSF25 mAbs in solution. Following a washing step, the bound antibodies were detected using a sulfo-tagged anti-human Fc antibody. The results of these MSD assays are shown in arbitrary units (au) on the y-axis of FIG. 1. To determine the binding affinity of the antibodies to recombinant human TNFRSF25 protein, recombinant biotin-conjugated human TNFRSF25 protein was immobilized onto a streptavidin-coated BLI sensor and allowed to bind the anti-TNFRSF25 mAbs in solution phase. The binding affinity (K_D) was calculated using the on-rates (Ka) and off-rates (Kd) of mAb binding to the target using a 1:1 Langmuir binding model in the ForteBio data analysis software.

Assay [12] addresses T1, biotinylated recombinant human FcRn-His …. As to the kind of experiment: BLI/Octet; biotinylated human FcRn-His on streptavidin biosensor; pH 7.4; pH 7.4. As to the method:
as §1, §2

Assay [13] addresses T2, biotinylated recombinant human …. Description: MSD plate binding; TNFRSF25 precoated, unpurified scFv supernatant in 2-fold serial dilutions, detection of the C-terminal myc tag. The source says:
(FIG. 2A) TNFRSF25 was precoated on MSD assay plates followed by adding scFv supernatant at 2-fold serial-dilutions followed by detection of the myc tag present on the C-terminus of the scFv's. (FIG. 2B) scFv supernatant were serially diluted and added to an MSD-plate pre-coated with TNFRSF25.

T1 sequence (P55899 24-297 limits assumed, chain 1 of 2): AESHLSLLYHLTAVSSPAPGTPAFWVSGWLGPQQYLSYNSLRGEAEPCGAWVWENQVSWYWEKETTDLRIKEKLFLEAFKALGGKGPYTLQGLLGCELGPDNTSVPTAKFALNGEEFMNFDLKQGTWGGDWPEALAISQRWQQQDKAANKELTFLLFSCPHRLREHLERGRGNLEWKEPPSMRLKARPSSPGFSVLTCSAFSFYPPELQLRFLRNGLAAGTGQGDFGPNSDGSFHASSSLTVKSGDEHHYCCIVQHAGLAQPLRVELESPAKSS
T1 sequence (P61769 21-119 limits assumed, chain 2 of 2): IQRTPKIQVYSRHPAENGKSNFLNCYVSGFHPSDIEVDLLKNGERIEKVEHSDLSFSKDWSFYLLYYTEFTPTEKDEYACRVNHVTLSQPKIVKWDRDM
Chain of FcγR1 (CD64), BLI reagent (P12314 16-288 limits assumed): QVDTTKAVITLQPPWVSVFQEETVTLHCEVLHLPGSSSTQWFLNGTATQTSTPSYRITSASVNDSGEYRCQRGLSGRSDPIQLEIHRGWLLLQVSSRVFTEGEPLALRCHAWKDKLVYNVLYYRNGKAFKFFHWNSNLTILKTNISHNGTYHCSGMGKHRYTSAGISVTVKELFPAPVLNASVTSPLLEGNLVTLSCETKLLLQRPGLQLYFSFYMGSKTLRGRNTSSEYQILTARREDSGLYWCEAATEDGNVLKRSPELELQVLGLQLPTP

B1: SL-061_YTE (antibody, human IgG1, kappa)
heavy: QVQLQQSGPGLVKPSQTLSLTCAISGDSVSGYSAAWNWIRQSPSRGLEWLGRTYYRSKWYNDYAVSVKSRITINPDTSKNQFSLQLNSVTPEDTAVYYCARDYYGSESYYNRGYYYYGMDVWGQGTTVTVSSASTKGPSVFPLAPSSKSTSGGTAALGCLVKDYFPEPVTVSWNSGALTSGVHTFPAVLQSSGLYSLSSVVTVPSSSLGTQTYICNVNHKPSNTKVDKKVEPKSCDKTHTCPPCPAPEAAGAPSVFLFPPKPKDTLYITREPEVTCVVVDVSHEDPEVKFNWYVDGVEVHNAKTKPREEQYNSTYRVVSVLTVLHQDWLNGKEYKCKVSNKALPAPIEKTISKAKGQPREPQVYTLPPSREEMTKNQVSLTCLVKGFYPSDIAVEWESNGQPENNYKTTPPVLDSDGSFFLYSKLTVDKSRWQQGNVFSCSVMHEALHNHYTQKSLSLSPGK
light: AIQLTQSPSSLSASVGDRVTITCRASPGISSALAWYQQKPGKAPKLLMYDESSQESGVPSRFSGSGSGTDFTLTISSLQPEDFATYYCQQFNDYPLTFGGGTKVEIKRTVAAPSVFIFPPSDEQLKSGTASVVCLLNNFYPREAKVQWKVDNALQSGNSQESVTEQDSKDSTYSLSSTLTLSKADYEKHKVYACEVTHQGLSSPVTKSFNRGEC
notes: SL-061 with YTE half-life extension changes in the Fc
Take B1: the “fold improvement in binding affinity at pH 6.0 compared to pH 7.4” value in assay [1] is around 10 fold. Moreover, in assay [2], the Kd amounted to 0.966 nM, the koff stood at 0.000193 s⁻¹ and the kon came to 200000 M⁻¹ s⁻¹. Moreover, in assay [3], the Kd stood at 8.08 nM, the koff was 0.00179 s⁻¹ and the kon was determined as 222000 M⁻¹ s⁻¹. Further, the “IC50 (read off the curve)” value in assay [4] is around 0.07 nM.

B2: SL-033 (antibody, human IgG1, kappa, L234A L235A)
heavy: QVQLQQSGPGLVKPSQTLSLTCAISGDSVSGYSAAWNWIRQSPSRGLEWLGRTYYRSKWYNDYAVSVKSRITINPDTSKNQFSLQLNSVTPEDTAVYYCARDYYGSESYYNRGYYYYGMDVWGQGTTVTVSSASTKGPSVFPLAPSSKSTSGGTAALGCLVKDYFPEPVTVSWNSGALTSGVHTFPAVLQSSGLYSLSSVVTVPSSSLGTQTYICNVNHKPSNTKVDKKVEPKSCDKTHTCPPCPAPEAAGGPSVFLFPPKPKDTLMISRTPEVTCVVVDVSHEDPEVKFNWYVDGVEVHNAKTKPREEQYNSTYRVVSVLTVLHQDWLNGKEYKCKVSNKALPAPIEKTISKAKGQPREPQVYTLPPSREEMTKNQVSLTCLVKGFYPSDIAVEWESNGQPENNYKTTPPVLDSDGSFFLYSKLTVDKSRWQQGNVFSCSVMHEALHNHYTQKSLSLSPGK
light: AIQLTQSPSSLSASVGDRVTITCRASPGISSALAWYQQKPGKAPKLLMYDESSQESGVPSRFSGSGSGTDFTLTISSLQPEDFATYYCQQFNDYPLTFGGGTKVEIKRTVAAPSVFIFPPSDEQLKSGTASVVCLLNNFYPREAKVQWKVDNALQSGNSQESVTEQDSKDSTYSLSSTLTLSKADYEKHKVYACEVTHQGLSSPVTKSFNRGEC
notes: Anti-TNFRSF25 IgG1 with Fc-silencing L234A/L235A; also called clone 033; SL-033 (L234A/L235A)
For B2, in assay [5], the “Response (RU)” value amounted to 2.19 RU. Besides, the koff in assay [5] is below 1e-07 s⁻¹. For the same molecule, in [5], the kon amounted to 243000 M⁻¹ s⁻¹. Moreover, the binding result in [6] was “binds”; in assay [7], “no binding (tested: about 200 nM (log nM about 2.3))”; in assay [8], “no binding (tested: about 200 nM (log nM about 2.3))”; in assay [10], “no binding (tested: about 200 nM (log nM about 2.3))”. The IC50 in [9] worked out at 0.07 nM. The Kd in assay [11] was below 1 nM.

B3: SL-062 (antibody, human IgG1, kappa)
heavy: not shown
light: AIQLTQSPSSLSASVGDRVTITCRASPGISSALAWYQQKPGKAPKLLMYDESSQESGVPSRFSGSGSGTDFTLTISSLQPEDFATYYCQQFNDYPLTFGGGTKVEIKRTVAAPSVFIFPPSDEQLKSGTASVVCLLNNFYPREAKVQWKVDNALQSGNSQESVTEQDSKDSTYSLSSTLTLSKADYEKHKVYACEVTHQGLSSPVTKSFNRGEC
notes: Same variable regions as SL-033 with wild-type IgG1 Fc; also called clone 062
Consider B3, for which the binding result in [6] was “binds”. The koff in assay [12] turned out to be 0.00124 s⁻¹. Besides, in assay [2], the Kd was found to be 3.93 nM, the koff is 0.000715 s⁻¹ and the kon was 182000 M⁻¹ s⁻¹. Moreover, in [3], the Kd is 6.54 nM and the kon is 190000 M⁻¹ s⁻¹.

B4: NH24-162 (scFv, not shown: small tags and cut ends)
scFv: EVQLVESGGGSVQPGGSLRLSCAASGFTFSSYGMSWVRQAPGKGLEWISYISSSGGHTYYADSVKGQFTISRDNAKNSLYLQMNSLRAEDTAVYYCARGSGSFDYWGQGTLVTVSSGGRGSGGGGSGSGGSDIVMTQSPSSLSASVGDRVTITCQASQDISNYLSWYQQKPGKAPKLLISDASNLETGVPSRFSGSGSGTDFTFTISSLQPEDIATYYCQQYDNLPITFGQGTRLEIKR
notes: one of the four variants of group m25; used as unpurified E. coli supernatant; the sheet prints NH24-162; also called NH24-162 scFv
Consider B4, for which the binding result in assay [13] is given as “binds”.
